# Laboratory results reported in US20200197495A1.
# Experiments:
# Assay in all cases: cell-based or functional assay
# [1] = molecular target: CSL627 (recombinant B-Domain-deleted single chain FVIII, rVIII-SingleChain) (Homo sapiens (Human)) (UniProt P00451)
# [2] = molecular target: Helixate (rec. FVIII from CSL Behring) (UniProt P00451)
# [3] = molecular target: ReFacto (rec. FVIII from Pfizer) (UniProt P00451)
# [4] = molecular target: Advate (rec. FVIII from Shire) (UniProt P00451)
"IC50, inhibition of factor VIII uptake in MDDCs [1] [nM]","reduction of CSL627 antigen presentation, HLA-DQB1 restricted peptide clusters [1] [fold]","reduction of CSL627 antigen presentation, peptide clusters (printed HLA-DQB1 a second time) [1] [fold]","reduction of CSL627 antigen presentation, unique HLA-DPB1 bound peptides [1] [fold]","reduction of CSL627 antigen presentation, unique HLA-DQB1 bound peptides [1] [fold]","IC50, inhibition of factor VIII uptake in MDDCs [2] [nM]","IC50, inhibition of factor VIII uptake in MDDCs [3] [nM]","IC50, inhibition of factor VIII uptake in MDDCs [4] [nM]",Substance
744,10,3.5,14.2,21.7,823,963,,"plasma-derived von Willebrand Factor (pdVWF; BIOSTATE, human plasma derived VWF from CSL Behring) (from UniProt P04275 23-2813)"
750,,,,,552,778,769,CSL650 (rec. VWF-albumin fusion from CSL Behring)
1720,,,,,1690,1570,2230,"CSL626 (truncated VWF (764-1242)-albumin fusion, dimer)"
